Data on one substance can be found in article PMC9556597.

The assay concerns the target AV-1980R recombinant protein (3xTau2-18-MultiTEP) (human) (UniProt P10636). Nature of the assay: AUC; protein in 3.2 M urea.

As a reminder, the stoichiometry N is the number of molecules, sites or subunits per partner or assembly. Turning to “AV-1980R recombinant protein (3xTau2-18-MultiTEP) (from UniProt P10636 2-18; P10636 2-18; P10636 2-18)”, the stoichiometry N is 4.
